B1: ycaC gene product (natural protein, Escherichia coli, UniProt P21367 1-208, looked up)
chain: MTKPYVRLDKNDAAVLLVDHQAGLLSLVRDIEPDKFKNNVLALGDLAKYFNLPTILTTSFETGPNGPLVPELKAQFPDTPYIARPGNINAWDNEDFVKAVKATGKKQLIIAGVVTEVCVAFPALSAIEEGFDVFVVTDASGTFNEITRHSAWDRLSQAGAQLMTWFGVACELHRDWRNDIEGLATLFSNHIPDYRNLMTSYDTLTKQK
notes: ycaC gene product, Escherichia coli, native source protein; identified with PDB 1YAC; the PDB entry is the previously deposited structure that identified the protein; the crystallised protein is the native one; source: purified from E. coli DH5α cells (whole-proteome fractionation)
B2: Adenylosuccinate synthetase (enzyme, Escherichia coli, UniProt P0A7D4 1-432, looked up)
chain: MGNNVVVLGTQWGDEGKGKIVDLLTERAKYVVRYQGGHNAGHTLVINGEKTVLHLIPSGILRENVTSIIGNGVVLSPAALMKEMKELEDRGIPVRERLLLSEACPLILDYHVALDNAREKARGAKAIGTTGRGIGPAYEDKVARRGLRVGDLFDKETFAEKLKEVMEYHNFQLVNYYKAEAVDYQKVLDDTMAVADILTSMVVDVSDLLDQARQRGDFVMFEGAQGTLLDIDHGTYPYVTSSNTTAGGVATGSGLGPRYVDYVLGILKAYSTRVGAGPFPTELFDETGEFLCKQGNEFGATTGRRRRTGWLDTVAVRRAVQLNSLSGFCLTKLDVLDGLKEVKLCVAYRMPDGREVTTTPLAADDWKGVEPIYETMPGWSESTFGVKDRSGLPQAALNYIKRIEELTGVPIDIISTGPDRTETMILRDPFDA
notes: adenylosuccinate synthetase, Escherichia coli, native source protein; identified with PDB 1CG1; the PDB entry is the previously deposited structure that identified the protein; the crystallised protein is the native one; source: purified from E. coli DH5α cells (whole-proteome fractionation)
B3: Malate dehydrogenase (enzyme, Escherichia coli, UniProt P61889 1-312, looked up)
chain: MKVAVLGAAGGIGQALALLLKTQLPSGSELSLYDIAPVTPGVAVDLSHIPTAVKIKGFSGEDATPALEGADVVLISAGVARKPGMDRSDLFNVNAGIVKNLVQQVAKTCPKACIGIITNPVNTTVAIAAEVLKKAGVYDKNKLFGVTTLDIIRSNTFVAELKGKQPGEVEVPVIGGHSGVTILPLLSQVPGVSFTEQEVADLTKRIQNAGTEVVEAKAGGGSATLSMGQAAARFGLSLVRALQGEQGVVECAYVEGDGQYARFFSQPLLLGKNGVEERKSIGTLSAFEQNALEGMLDTLKKDIALGEEFVNK
notes: malate dehydrogenase, Escherichia coli, native source protein; identified with PDB 2PWZ; the PDB entry is the previously deposited structure that identified the protein; the crystallised protein is the native one; source: purified from E. coli DH5α cells (whole-proteome fractionation)
B4: Inorganic pyrophosphatase (enzyme, Escherichia coli, UniProt P0A7A9 1-176, looked up)
chain: MSLLNVPAGKDLPEDIYVVIEIPANADPIKYEIDKESGALFVDRFMSTAMFYPCNYGYINHTLSLDGDPVDVLVPTPYPLQPGSVIRCRPVGVLKMTDEAGEDAKLVAVPHSKLSKEYDHIKDVNDLPELLKAQIAHFFEHYKDLEKGKWVKVEGWENAEAAKAEIVASFERAKNK
notes: inorganic pyrophosphatase, Escherichia coli, native source protein; identified with PDB 1IPW; the PDB entry is the previously deposited structure that identified the protein; the crystallised protein is the native one; source: purified from E. coli DH5α cells (whole-proteome fractionation)
B5: 5-keto-4-deoxyuronate isomerase (enzyme, Escherichia coli, UniProt Q46938 1-278, looked up)
chain: MDVRQSIHSAHAKTLDTQGLRNEFLVEKVFVADEYTMVYSHIDRIIVGGIMPITKTVSVGGEVGKQLGVSYFLERRELGVINIGGAGTITVDGQCYEIGHRDALYVGKGAKEVVFASIDTGTPAKFYYNCAPAHTTYPTKKVTPDEVSPVTLGDNLTSNRRTINKYFVPDVLETCQLSMGLTELAPGNLWNTMPCHTHERRMEVYFYFNMDDDACVFHMMGQPQETRHIVMHNEQAVISPSWSIHSGVGTKAYTFIWGMVGENQVFDDMDHVAVKDLR
notes: 5-keto-4-deoxyuronate isomerase, Escherichia coli, native source protein; identified with PDB 1XRU; the PDB entry is the previously deposited structure that identified the protein; the crystallised protein is the native one; source: purified from E. coli DH5α cells (whole-proteome fractionation)
B6: heat shock protein 31 (HSP31) (natural protein, Escherichia coli, UniProt P31658 1-283, looked up)
chain: MTVQTSKNPQVDIAEDNAFFPSEYSLSQYTSPVSDLDGVDYPKPYRGKHKILVIAADERYLPTDNGKLFSTGNHPIETLLPLYHLHAAGFEFEVATISGLMTKFEYWAMPHKDEKVMPFFEQHKSLFRNPKKLADVVASLNADSEYAAIFVPGGHGALIGLPESQDVAAALQWAIKNDRFVISLCHGPAAFLALRHGDNPLNGYSICAFPDAADKQTPEIGYMPGHLTWYFGEELKKMGMNIINDDITGRVHKDRKLLTGDSPFAANALGKLAAQEMLAAYAG
notes: Hsp31, Escherichia coli, native source protein; identified with PDB 1N57; the PDB entry is the previously deposited structure that identified the protein; the crystallised protein is the native one; source: purified from E. coli DH5α cells (whole-proteome fractionation)
B7: MoaB (molybdopterin biosynthesis protein B) (natural protein, Escherichia coli, UniProt P0AEZ9 1-170, looked up)
chain: MSQVSTEFIPTRIAILTVSNRRGEEDDTSGHYLRDSAQEAGHHVVDKAIVKENRYAIRAQVSAWIASDDVQVVLITGGTGLTEGDQAPEALLPLFDREVEGFGEVFRMLSFEEIGTSTLQSRAVAGVANKTLIFAMPGSTKACRTAWENIIAPQLDARTRPCNFHPHLKK
notes: MoaB, molybdopterin biosynthesis protein B, Escherichia coli, native source protein; identified with PDB 1R2K; the PDB entry is the previously deposited structure that identified the protein; the crystallised protein is the native one; source: purified from E. coli DH5α cells (whole-proteome fractionation)
B8: phosphoserine aminotransferase (enzyme, Escherichia coli, UniProt P23721 1-362, looked up)
chain: MAQIFNFSSGPAMLPAEVLKQAQQELRDWNGLGTSVMEVSHRGKEFIQVAEEAEKDFRDLLNVPSNYKVLFCHGGGRGQFAAVPLNILGDKTTADYVDAGYWAASAIKEAKKYCTPNVFDAKVTVDGLRAVKPMREWQLSDNAAYMHYCPNETIDGIAIDETPDFGADVVVAADFSSTILSRPIDVSRYGVIYAGAQKNIGPAGLTIVIVREDLLGKANIACPSILDYSILNDNGSMFNTPPTFAWYLSGLVFKWLKANGGVAEMDKINQQKAELLYGVIDNSDFYRNDVAKANRSRMNVPFQLADSALDKLFLEESFAAGLHALKGHRVVGGMRASIYNAMPLEGVKALTDFMVEFERRHG
notes: phosphoserine aminotransferase, Escherichia coli, native source protein; identified with PDB 1BJN; the PDB entry is the previously deposited structure that identified the protein; the crystallised protein is the native one; source: purified from E. coli DH5α cells (whole-proteome fractionation)

Target: the molecule itself
Test: crystal structure; native source E. coli proteins already in the PDB, identified and solved by brute-force molecular replacement, not refined except to confirm the solution; oligomer seen in the crystal

Protein	binding result
B1	binds
B2	binds
B3	binds
B4	binds
B5	binds
B6	binds
B7	binds
B8	binds
